# Measured values: the supplement of paper PMC10724198
# ± gives the standard deviation of the averaged measurements.
# How the values were obtained:
# Saccharomyces cerevisiae [1] = assay: protein stability index of tFT-peptide fusion (C-terminal peptide) (PSI (0-1 scale)); higher = more stable (slower turnover); details: genetic background: wild type; temperature: 30 C
# Saccharomyces cerevisiae [2] = assay: as above
# Experimental: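 MPS profiling in S. cerevisiae of the tFT-X12 degron library: putative degron peptides plus stable controls, 12 aa, fused to the C-terminus of a sfGFP-mCherry timer. Cells are FACS-sorted into 8 mCherry/sfGFP bins and deep-sequenced. PSI runs from 0 (unstable) to 1 (stable). Backgrounds are wild type, das1Δ and doa10Δ at 30 °C, and wild type, das1Δ, cdc34-1 and cdc53-1 at 37 °C; 2-3 technical replicates each.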
# [3] = genetic background: cdc34-1, temperature: 37 C
# [4] = genetic background: cdc53-1, temperature: 37 C
# [5] = genetic background: das1 deletion, temperature: 30 C
# [6] = genetic background: das1 deletion, temperature: 37 C
# [7] = genetic background: doa10 deletion, temperature: 30 C
# [8] = genetic background: wild type, temperature: 30 C
# [9] = genetic background: wild type, temperature: 37 C
# 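Also: PSI is a weighted mean of sequencing reads over stability bins, variants kept only with over 10 reads, mCherry proximal and sfGFP distal, peptide attached via GGGS linker.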
Sequence,protein stability index (Saccharomyces cerevisiae [1]),protein stability index (Saccharomyces cerevisiae [2]; [3]),protein stability index (Saccharomyces cerevisiae [2]; [4]),protein stability index (Saccharomyces cerevisiae [2]; [5]),protein stability index (Saccharomyces cerevisiae [2]; [6]),protein stability index (Saccharomyces cerevisiae [2]; [7]),protein stability index (Saccharomyces cerevisiae [2]; [8]),protein stability index (Saccharomyces cerevisiae [2]; [9])
WLFRASSFNWVI,0.105 ± 0.036,0.537 ± 0.017,0.7359 ± 0.0063,0.689 ± 0.04,0.802 ± 0.025,0.0843 ± 0.016,0.105 ± 0.026,0.188 ± 0.019
WLFTSVTVFTFL,0.296 ± 0.045,0.21366 ± 0.00013,0.299 ± 0.02,0.221 ± 0.023,0.421 ± 0.021,0.181 ± 0.0045,0.196 ± 0.013,0.347 ± 0.016
WLSISNLVIACR,0.217 ± 0.013,0.0277 ± 0.009,0.0619 ± 0.027,0.135 ± 0.039,0.156 ± 0.013,0.0862 ± 0.019,0.115 ± 0.025,0.127 ± 0.017
WNSQGVFILAKC,0.4783 ± 0.0023,0.54 ± 0.035,0.588 ± 0.032,0.375 ± 0.026,0.5687 ± 0.0026,0.334 ± 0.021,0.372 ± 0.021,0.561 ± 0.00046
WRAFVFYHHFLD,0.441 ± 0.015,0.665 ± 0.042,0.718 ± 0.028,0.655 ± 0.039,0.699 ± 0.014,0.329 ± 0.029,0.363 ± 0.029,0.5863 ± 0.0019
WVFVETVFLVCG,0.25 ± 0.02,0.147 ± 0.046,0.226 ± 0.04,0.176 ± 0.038,0.3159 ± 0.0011,0.142 ± 0.012,0.162 ± 0.03,0.2848 ± 0.0003
WVGVVLLSVVGG,0.279 ± 0.032,0.161 ± 0.016,0.249 ± 0.008,0.2 ± 0.032,0.344 ± 0.0057,0.164 ± 0.008,0.183 ± 0.025,0.32339 ± 0.00026
WVWCVCVVVWCG,0.25425 ± 0.00016,0.111 ± 0.0046,0.191 ± 0.051,0.153 ± 0.026,0.256 ± 0.013,0.135 ± 0.0037,0.14 ± 0.02,0.195 ± 0.026
WVWFGCVLGYRV,0.484 ± 0.022,0.571 ± 0.022,0.561 ± 0.025,0.426 ± 0.026,0.566 ± 0.021,0.442 ± 0.039,0.413 ± 0.027,0.531 ± 0.019
WWVAGLGSSGGG,0.7348 ± 0.0046,0.738 ± 0.016,0.77959 ± 0.00011,0.663 ± 0.026,0.788 ± 0.0094,0.686 ± 0.031,0.677 ± 0.0094,0.765 ± 0.026
WWVVVRGGWCLC,0.204 ± 0.011,0.336 ± 0.043,0.416 ± 0.014,0.286 ± 0.032,0.495 ± 0.009,0.1219 ± 0.0001,0.16 ± 0.0021,0.205 ± 0.0045
YFVLVRLICFLL,0.244 ± 0.085,0.347 ± 0.0092,0.438 ± 0.0066,0.289 ± 0.035,0.472 ± 0.01,0.194 ± 0.011,0.216 ± 0.039,0.373 ± 0.013
YNTVALRITLIT,0.348 ± 0.03,0.444 ± 0.017,0.538 ± 0.013,0.329 ± 0.05,0.5018 ± 0.0042,0.209 ± 0.00078,0.228 ± 0.017,0.364 ± 0.0086
YPLISVSLPCPS,0.489 ± 0.012,0.533 ± 0.018,0.6067 ± 0.0052,0.396 ± 0.042,0.585 ± 0.015,0.349 ± 0.005,0.404 ± 0.023,0.544 ± 0.016
YPRLVGGCWFRL,0.403 ± 0.047,0.318 ± 0.03,0.258 ± 0.037,0.371 ± 0.016,0.547 ± 0.032,0.644 ± 0.043,0.319 ± 0.041,0.603 ± 0.031
YSCFFFLFSFFF,0.4853 ± 0.0041,0.498 ± 0.023,0.56 ± 0.016,0.429 ± 0.027,0.5552 ± 0.0024,0.423 ± 0.022,0.406 ± 0.0031,0.50243 ± 1.8e-05
YSVFCPLFFIIY,0.379 ± 0.014,0.3507 ± 0.0014,0.323 ± 0.006,0.298 ± 0.04,0.458 ± 0.013,0.351 ± 0.014,0.283 ± 0.02,0.433 ± 0.0062
YTPPISRLLIFT,0.497 ± 0.097,0.528 ± 0.031,0.532 ± 0.0094,0.39 ± 0.035,0.564 ± 0.016,0.353 ± 0.019,0.364 ± 0.052,0.494 ± 0.022
YVFSPWSCWASV,0.423 ± 0.015,0.366 ± 0.019,0.396 ± 0.0044,0.416 ± 0.0081,0.361 ± 0.0059,0.4213 ± 0.00065,0.4048 ± 0.0027,0.351 ± 0.015
YVLWFVCGVGFV,0.392 ± 0.041,0.352 ± 0.015,0.462 ± 0.031,0.29 ± 0.045,0.4768 ± 0.0011,0.262 ± 0.024,0.298 ± 0.02,0.453 ± 0.028
YVWPKRRGLRVA,0.433 ± 0.013,0.611 ± 0.036,0.674 ± 0.023,0.467 ± 0.03,0.679 ± 0.009,0.197 ± 0.019,0.261 ± 0.038,0.49 ± 0.025
YYLVKCVYLRTT,0.254 ± 0.032,0.413 ± 0.013,0.4509 ± 0.0038,0.371 ± 0.029,0.504 ± 0.0098,0.155 ± 0.02,0.175 ± 0.0092,0.3201 ± 0.00022
